In PMC11984883, “ACAT1‐Mediated ME2 Acetylation Drives Chemoresistance in Ovarian Cancer by Linking Glutaminolysis to Lactate Production” (Advanced Science, 2025):
Each block holds one molecule with its values, some of them ahead of it.

Experiments:
[1] = target: T1, ME2 (malic enzyme 2) (Homo sapiens, UniProt P23368); assay: […]-pyruvate binding to Flag-bead-bound ME2, scintillation counting
T1 construct: for the malate assay purified from overexpressing 293T cells treated with cisplatin

[2] = target: T2, ME2-flag recombinant protein (WT) (UniProt P23368 19-584); assay: pull-down; ME2-flag recombinant protein bound to Flag beads, incubated with recombinant ACAT1 or SIRT4 with or without pyruvate (increasing concentrations) for 20 min at room temperature, unbound protein washed out, western blot; settings: both partners purified
T2 construct: malic enzyme 2 (ME2), wild type; If it was made in mammalian cells, the mitochondrial transit peptide is probably removed (surmise); also called purified ME2-flag protein; ME2-flag WT; not shown: Flag, C-terminal, kept

[3] = target: T3, ME2-flag R511A recombinant protein (UniProt P23368 19-584, R511A); assay: as above; settings: both partners purified
T3 construct: Same construct as m7, with the mutation; also called ME2 R511A; source: recombinant, purified; not shown: Flag, C-terminal, kept
T3 sequence (P23368 19-584 R511A): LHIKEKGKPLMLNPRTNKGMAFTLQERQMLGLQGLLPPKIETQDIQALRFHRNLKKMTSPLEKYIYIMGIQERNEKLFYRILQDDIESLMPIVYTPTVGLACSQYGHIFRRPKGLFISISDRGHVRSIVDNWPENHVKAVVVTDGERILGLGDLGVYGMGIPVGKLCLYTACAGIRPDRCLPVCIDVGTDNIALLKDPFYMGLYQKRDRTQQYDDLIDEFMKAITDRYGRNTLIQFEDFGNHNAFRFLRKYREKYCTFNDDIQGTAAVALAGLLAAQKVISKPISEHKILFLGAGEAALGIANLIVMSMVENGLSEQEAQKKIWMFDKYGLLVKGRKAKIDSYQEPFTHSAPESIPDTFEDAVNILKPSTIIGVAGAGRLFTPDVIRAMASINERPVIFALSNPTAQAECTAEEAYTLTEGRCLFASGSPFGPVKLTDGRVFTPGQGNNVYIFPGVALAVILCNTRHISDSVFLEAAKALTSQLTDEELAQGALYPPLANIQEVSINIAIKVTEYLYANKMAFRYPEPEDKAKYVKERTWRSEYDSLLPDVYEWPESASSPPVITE

T2 sequence (P23368 19-584): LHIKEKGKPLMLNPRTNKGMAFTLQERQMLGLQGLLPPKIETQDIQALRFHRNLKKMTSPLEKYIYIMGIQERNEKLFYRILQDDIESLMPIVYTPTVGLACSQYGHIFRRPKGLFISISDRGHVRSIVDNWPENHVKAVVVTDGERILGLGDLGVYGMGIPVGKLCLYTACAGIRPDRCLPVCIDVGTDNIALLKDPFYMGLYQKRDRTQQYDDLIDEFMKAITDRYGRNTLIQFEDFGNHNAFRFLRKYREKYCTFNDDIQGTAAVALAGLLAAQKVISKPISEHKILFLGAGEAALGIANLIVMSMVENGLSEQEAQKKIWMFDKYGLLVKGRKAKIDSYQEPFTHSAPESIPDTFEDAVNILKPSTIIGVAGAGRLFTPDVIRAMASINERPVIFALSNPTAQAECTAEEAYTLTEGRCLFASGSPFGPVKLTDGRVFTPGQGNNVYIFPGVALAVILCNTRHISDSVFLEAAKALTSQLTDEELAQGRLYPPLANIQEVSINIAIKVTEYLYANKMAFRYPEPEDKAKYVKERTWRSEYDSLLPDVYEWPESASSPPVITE
T1 sequence (P23368 19-584): as above

- Kd [1]: ~6.17 µM
Molecule: CC(=O)C(=O)O [pyruvate]

- binding result [2]: binds
- binding result [3]: binds
B1: recombinant SIRT4 (enzyme, UniProt Q9Y6E7 29-314, looked up)
chain: IGLFVPASPPLDPEKVKELQRFITLSKRLLVMTGAGISTESGIPDYRSEKVGLYARTDRRPIQHGDFVRSAPIRQRYWARNFVGWPQFSSHQPNPAHWALSTWEKLGKLYWLVTQNVDALHTKAGSRRLTELHGCMDRVLCLDCGEQTPRGVLQERFQVLNPTWSAEAHGLAPDGDVFLSEEQVRSFQVPTCVQCGGHLKPDVVFFGDTVNPDKVDFVHKRVKEADSLLVVGSSLQVYSGYRFILTAWEKKLPIAILNIGPTRSDDLACLKLNSRCGELLPLIDPC
notes: SIRT4, recombinant protein; also called purified, recombinant SIRT4; source: recombinant, purified

- binding result [2]: binds
- binding result [3]: binds
B2: recombinant ACAT1 (enzyme, UniProt P24752 34-427, looked up)
chain: VSKPTLKEVVIVSATRTPIGSFLGSLSLLPATKLGSIAIQGAIEKAGIPKEEVKEAYMGNVLQGGEGQAPTRQAVLGAGLPISTPCTTINKVCASGMKAIMMASQSLMCGHQDVMVAGGMESMSNVPYVMNRGSTPYGGVKLEDLIVKDGLTDVYNKIHMGSCAENTAKKLNIARNEQDAYAINSYTRSKAAWEAGKFGNEVIPVTVTVKGQPDVVVKEDEEYKRVDFSKVPKLKTVFQKENGTVTAANASTLNDGAAALVLMTADAAKRLNVTPLARIVAFADAAVEPIDFPIAPVYAASMVLKDVGLKKEDIAMWEVNEAFSLVVLANIKMLEIDPQKVNINGGAVSLGHPIGMSGARIVGHLTHALKQGEYGLASICNGGGGASAMLIQKL
notes: acetyl-CoA acetyltransferase 1 (ACAT1), recombinant protein; also called purified, recombinant ACAT1; source: recombinant, purified
